The RNAGym collection of RNA variant scans (doi:10.1073/pnas.2313332121)

B1: TPR t1 (parent)
chain: GACCAAUCUGCCCUCAGAGCUCGAGAACAUCUUCGGAUGCAGAGGAGGCAGGCUUCGGUGGCGCGAUAGCGCCAACGUCCUCAACCUCCAAUGCAUCCCACCACAUGAUGAUGCCUGAAGAGCCUUGGUUUUUUG

Variants of: B1
Experiment: polymerase ribozyme fitness, log enrichment relative to wild type (log ratio); higher = more active; in vitro selection for triplet polymerase activity
Procedure, shortened: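 To select mutant libraries of each subunit of a heterodimeric triplet polymerase ribozyme, built by PCR and transcribed, each was annealed with a biotinylated primer, partner subunit and triplets, then incubated frozen at −7 °C. Extended constructs were gel-excised, captured on streptavidin beads and amplified by RT-PCR, in one round carried out in triplicate. Illumina sequencing of input and output libraries kept genotypes with ≥10 input reads and ≥1 read per output. Fitness is the base-2 logarithm of genotype enrichment relative to wild-type enrichment, from inverse-variance-weighted replicate averages.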

Row | Variant | polymerase ribozyme fitness (log ratio)
1 | G60U C85A | -0.541
2 | G61C C89A U132C | -3.89
3 | G61A G113U | -2.69
4 | U59C C114A U130A | -2.23
5 | G60U A84U C102A U134G | -2.03
6 | G60A C82A U106A G120A | 0.0586
7 | G60C G69A | -4.01
8 | G61A G107U | -4.9
9 | G60C C123A | -0.064
10 | C62A C101A G113A | -2.77
11 | G61C G110U | -3.71
12 | G60U C114U | -2.1
13 | G61U C73U A121G | 0.407
14 | G61C C114U | -4
15 | G61U G63A U96A A103G A111U G113A U132C | -6.45
16 | G60A G113C G135U | -5.16
17 | G60A A84U U87A G113U G122A | -5.92
18 | G61C C94U U130A U131G | -3.54
19 | C62A G120C | -0.534
20 | G61A A111U | -2.88
21 | G60U C104U | 0.494
22 | U59C G71A G127C U132C | -2.94
23 | C62A G93U C101G | -5.19
24 | G61U C115G G117A G122U U126C | -4.57

Row | Variant | polymerase ribozyme fitness (log ratio)
25 | G60U G117U | -1.65
26 | G61U G113C U130G G135U | -3.21
27 | G60C C79A C88G | -2.51
28 | C62A G77C U87A | -1.71
29 | G61C A74C C85U | -5.35
30 | G60A A84C | -0.0134
31 | G60U C82U | -0.383
32 | G61A C62U C73A | -2.37
33 | G60A C64U | -2.43
34 | G61C G93U U130A | -3.65
35 | G61C C104U A111C | -1.59
36 | U59C G107C U112A U133G | -6.34
37 | C62A G107A | -5.05
38 | G60U U92A | -3.34
39 | G61U C99A | -5.7
40 | G60A C99U | -2.87
41 | G61U C101A U125C | -4.61
42 | G60U U126C | -0.44
43 | G61A C97U | -0.149
44 | G60U C86U A103U | -6.46
45 | G61U A105C | -1.99
46 | G61U A105U | -1.36
47 | G60C G110U | -1.71
48 | G60A U92A C104U U133A | -2.74

Row | Variant | polymerase ribozyme fitness (log ratio)
49 | G60U C80U C123A | -1.11
50 | U59G G122A | -1.35
51 | U59G C62A A95U | -3.76
52 | G61U C86A A119C G120A | -2.79
53 | C62A C94U | -1.76
54 | G61A G127C | -0.956
55 | G61A C89G C101G A121G | -0.932
56 | G61U C97G G113U | -5.53
57 | G61A C70U G120U C123G | -0.0638
58 | G60C C114A | -1.83
59 | G61C C98U C123G U133A G135U | -1.22
60 | G60A A105U | -1.64
61 | G61U C102U | -1.65
62 | U59G C72A | -2.02
63 | C62A A95U | -1.55
64 | U59G C97U | -1.6
65 | G60A U78A U92C | -1.57
66 | G60C C114A C115G G122C U133C | -4.6
67 | U59C C70A | -2.41
68 | G61U A119G | 1.3
69 | C62A C82U | -0.465
70 | C62A C114A | -2.71
71 | G60C C88U G117A | -1.68
72 | G60A A108G G117A | -3.74

Row | Variant | polymerase ribozyme fitness (log ratio)
73 | G61U C82A G107A | -5.28
74 | G60A A118U U126A | -2.3
75 | G61C U112A | -0.897
76 | G60A C85A | -1.07
77 | G60C U130G | -1.28
78 | G61U A100C U106A U112A | 1.26
79 | C62A A84U | -1.52
80 | G61U U96A | -0.797
81 | G60U A91G | -1.56
82 | G61A U116G G128C | -4.66
83 | G61U C98U | -1.55
84 | G61U C98A | -3.78
85 | G60A G110C | -3.08
86 | G61U U81G C86U G120U | -2.64
87 | G61A U112A C124U | 1.83
88 | G60A C123G | 1.63
89 | G61A U78G G120A | 0.458
90 | G61A C79A C104A A111U | -5.96
91 | G61A C123G | 1.69
92 | G61U A84G U96G | -0.74
93 | G61C U78G U112A G128A | -6.61
94 | U59G A83C C97U | -0.481
95 | G61A U109A | -5.19
96 | G61A U109C | -2.02

Row | Variant | polymerase ribozyme fitness (log ratio)
97 | G61U | 0.14
98 | G61A | 0.0725
99 | G61C | -1.63
100 | G61A C97U C114U | -2.43
101 | G61A C72U G77U | -0.134
102 | G61U C86A A103C | -5.4
103 | G61C C79U C101G | -1.64
104 | G60U A90U | -1.1
105 | G61U U87A A121U | 1.5
106 | G60A G63A C114U | -4.85
107 | G60A U92A | -3.24
108 | G60C C82A | -0.574
109 | G60C C82G | -0.49
110 | G61A C104U | 0.241
111 | G60U C80G | -4.54
112 | G60A A103C A111C | -4.91
113 | G61A A91C | -0.737
114 | C62A | -0.872
115 | G61A C82U C115A | 0.0919
116 | G60A C114U | -1.78
117 | G60A C114A | -1.45
118 | G60U C80A U106A | -3.14
119 | G61U C82A | -0.605
120 | C62A C101A C114A | -3.81

Row | Variant | polymerase ribozyme fitness (log ratio)
121 | G61C U126A | -2.98
122 | G60A C72G C79A U87C U129C | -3.89
123 | G61C A83G | -3.02
124 | G61A U78G A84U C86A | -1.71
125 | G60U G93A C98G | -6.44
126 | G60C U81A A83C | -3.92
127 | G61A C101U | -1.21
128 | G60U C79U | 0.386
129 | G61U A83U A90G | 0.371
130 | G61C G107C C114A A119U | -6.57
131 | G61C C73U C85U G117A U129C | -5.49
132 | G61C C94U | -1.25
133 | G61C C94G | -2.92
134 | C62A C72G U112G | -1.95
135 | G61C C124G | -0.476
136 | G61A A84U C114U | -2.12
137 | C62A C101U | -2.3
138 | C62A C101A | -2.84
139 | G61A G110A | -0.516
140 | C62A U78A A91U A111C | -4.78
141 | G60U A90G C123A U125A G135A | 1.61
142 | G61A U112G G120U G122C | -1.64
143 | G61U U133G | -0.566
144 | G60U U131C | -0.0582

Row | Variant | polymerase ribozyme fitness (log ratio)
145 | G60A G63U | -3.96
146 | G61U C104U | 0.264
147 | U59C C123G | 1.95
148 | G60C U92G | -3.59
149 | G60U G120A | 1.38
150 | G60U G120U | 0.205
151 | G61C G113U | -4.1
152 | G60C C80U | -4.1
153 | G61U C98A C99A | -5.19
154 | G61U A84U | -0.0265
155 | G60A A100U U129A | -2
156 | C62A U133A | -1.52
157 | G61U U78C C89G | -1.23
158 | G61A G128U | -2.15
159 | G61A C88G | -0.136
160 | G61C C76U | -3.1
161 | G60A C124G | 1.59
162 | U59C C86U | -1.17
163 | G61U C89A | -1.5
164 | U59C U78G C104U G117A | -2.35
165 | G60U A105C | -1.6
166 | G61A A118G | -0.742
167 | G60A U133A | -0.249
